Article doi:10.1101/2025.10.30.685657
Where two headings read alike, the source gives them in different places.

Legend:
Test in all cases: live-cell long-exposure single-molecule localization microscopy
[1] = molecular target: T3SS injectisome of Yersinia enterocolitica (Yersinia enterocolitica (endogenous)) (UniProt Q01245)
[2] = molecular target: T3SS injectisome of Yersinia enterocolitica (Yersinia enterocolitica (endogenous)) (UniProt Q01245); remark: listed apart in the source
[3] = molecular target: T3SS injectisome of Yersinia enterocolitica (Yersinia enterocolitica (endogenous)) (UniProt Q01245); remark: listed apart in the source

| Substance | bound time constant tau (inverse of koff) [1] [s] | bound time constant tau (inverse of koff) [2] [s] | short bound time constant tau (short component of the bi-exponential fit) [2] [s] | weighted average bound time constant (short- and long-lived events) [2] [s] | short bound time constant tau (short component of the bi-exponential fit) [3] [s] | weighted average bound time constant (short- and long-lived events) [3] [s] | long bound time constant tau (long component of the bi-exponential fit) [2] [s] |
| --- | --- | --- | --- | --- | --- | --- | --- |
| Halo-tagged SctL (from UniProt Q01253 1-223) (natural protein) | 3.9 | 3.4 | 3.1 | 4.4 |  |  |  |
| Halo-tagged SctQ (from UniProt Q79NI3 1-307) (natural protein) | 4.1 | 2.5 | 4.5 |  | 2.1 | 2.7 | 23 |
